Tests used:
[1] = molecular target: T1, soluble IGF1R (sIGF1R), extracellular domain of human insulin-like growth factor 1 receptor, carboxy-terminal … (human, UniProt P08069 31-932); assay: ELISA, culture supernatant on 2 µg/ml coated sIGF1R, Attophos detection
T1 construct: Bought from R&D Systems; GenBank NP-000866 is printed for the whole receptor; also called IFG1R
Procedure: The binding of purified peptide-AP fusion proteins to sIGF1R was assessed using ELISA against immobilized sIGF1R. Briefly, bacteria transformed with each peptide-AP fusion expression vector were grown overnight and the following day the cultures were clarified by centrifugation at 4,500 rpm, 4° C. The supernatants were collected and 75 μl of each supernatant was assayed for binding to 2 μg/ml sIGF1R immobilized on ELISA plates. The bound peptides were detected using the Attophos Substrate (Roche, Indianapolis, Ind.) following the manufacturer's recommendation and read using a Molecular Devices M5 plate reader.

[2] = molecular target: T1, soluble IGF1R (sIGF1R), extracellular …; assay: ELISA, serially diluted PG-peptide fusion on coated sIGF1R
Procedure: Relative binding affinities of the PG-peptide fusions for sIGF1R were measured using ELISA. The Kds were determined using GraphPad Prism 4 software with a one site binding equation. 100 μl of 2 μg/ml sIGF1R(R&D Systems, Minneapolis, Minn.) in Dulbecco's Phosphate Buffer Saline (DPBS (−/−)) was coated onto a 96 well Black Maxisorp plates (Nunc, Rochester, N.Y.) overnight at 4° C. The plates were washed with TBST and the wells blocked with 200 μl/well Starting Block T20 (TBS) (Pierce, Rockford, Ill.) for 1 hr, room temperature with 300 rpm shaking. 75 μl/well of purified, serially diluted PG-peptide fusions, starting concentration 40 μM, was added into the wells and incubated for 1 h, room temperature with 300 rpm mixing; the volume was brought up to 100 μl with Starting Block T20. The plates were washed 3× with TBST and then probed with 100 μl/well Peroxidase labeled-Rabbit antibody (1:5000) (Rockland, Gilbertsville, Pa.), washed, and the signal was detected using 100 μl/well POD substrate (Roche, Indianapolis, Ind.). Chemiluminescence was detected using a Molecular Devices M5 plate reader.
The fusion protein with peptide clone 17 was unique in its binding profile in that the binding curve was bellshaped. […]

binding result [1]	binding result [2]	Binder
binds	–	peptide-Alkaline phosphatase-His6 fusion protein of clone 17 (other, Tested as bacterial culture supernatant; also called peptide-AP fusion clone 17) DDIDEFLHQLHNLVNNVHTPEMPVLENRAAQGDITTPGGARRLTGDQTAALRDSLSDKPAKNIILLIGDGMGDSEITAARNYAEGAGGFFKGIDALPLTGQYTHYALNKKTGKPDYVTDSAASATAWSTGVKTYNGALGVDIHEKDHPTILEMAKAAGLATGNVSTAELQGATPAALVAHVTSRKCYGPSATSEKCPGNALEKGGKGSITEQLLNARADVTLGGGAKTFAETATAGEWQGKTLREQAQTRGYQLVSDAASLNSVTEANQQKPLLGLFADGNMPVRWLGPKATYHGNIDKPAVTCTPNPQRNDSVPTLAQMTDKAIELLSKNEKGFFLQVEGASIDKQNHAANPCGQIGETVDLDEAVQRALEFAKKEGNTLVIVTADHAHASQIVAPDTKAPGLTQALNTKDGAVMVMSYGNSEEDSQEHTGSQLRIAAYGPHAANVVGLTDQTDLFYTMKAALGLKVPGGSGGGSGGGSGGGSGTPEMPVLENRAAQGDITTPGGARRLTGDQTAALRDSLSDKPAKNIILLIGDGMGDSEITAARNYAEGAGGFFKGIDALPLTGQYTHYALNKKTGKPDYVTDSAASATAWSTGVKTYNGALGVDIHEKDHPTILEMAKAAGLATGNVSTAELQGATPAALVAHVTSRKCYGPSATSEKCPGNALEKGGKGSITEQLLNARADVTLGGGAKTFAETATAGEWQGKTLREQAQTRGYQLVSDAASLNSVTEANQQKPLLGLFADGNMPVRWLGPKATYHGNIDKPAVTCTPNPQRNDSVPTLAQMTDKAIELLSKNEKGFFLQVEGASIDKQNHAANPCGQIGETVDLDEAVQRALEFAKKEGNTLVIVTADHAHASQIVAPDTKAPGLTQALNTKDGAVMVMSYGNSEEDSQEHTGSQLRIAAYGPHAANVVGLTDQTDLFYTMKAALGLKVPGNSHHHHHH
–	binds	PG-peptide fusion of clone 17 (protein G IgG domain with peptide SEQ ID NO: 13 at its C-terminus) (other, also called PG-peptide fusion clone 17; fusion protein with peptide clone 17) YKLILNGKTLKGETTTEAVDAATAEKVFKQYANDNGVDGEWTYDDATKTFTVTEDDIDEFLHQLHNLVNNVH
binds	–	peptide-Alkaline phosphatase-His6 fusion protein of clone 16 (other, Tested as bacterial culture supernatant; also called peptide-AP fusion clone 16) AGCPSPMPPVDPGFYSAIVQLCRETPEMPVLENRAAQGDITTPGGARRLTGDQTAALRDSLSDKPAKNIILLIGDGMGDSEITAARNYAEGAGGFFKGIDALPLTGQYTHYALNKKTGKPDYVTDSAASATAWSTGVKTYNGALGVDIHEKDHPTILEMAKAAGLATGNVSTAELQGATPAALVAHVTSRKCYGPSATSEKCPGNALEKGGKGSITEQLLNARADVTLGGGAKTFAETATAGEWQGKTLREQAQTRGYQLVSDAASLNSVTEANQQKPLLGLFADGNMPVRWLGPKATYHGNIDKPAVTCTPNPQRNDSVPTLAQMTDKAIELLSKNEKGFFLQVEGASIDKQNHAANPCGQIGETVDLDEAVQRALEFAKKEGNTLVIVTADHAHASQIVAPDTKAPGLTQALNTKDGAVMVMSYGNSEEDSQEHTGSQLRIAAYGPHAANVVGLTDQTDLFYTMKAALGLKVPGGSGGGSGGGSGGGSGTPEMPVLENRAAQGDITTPGGARRLTGDQTAALRDSLSDKPAKNIILLIGDGMGDSEITAARNYAEGAGGFFKGIDALPLTGQYTHYALNKKTGKPDYVTDSAASATAWSTGVKTYNGALGVDIHEKDHPTILEMAKAAGLATGNVSTAELQGATPAALVAHVTSRKCYGPSATSEKCPGNALEKGGKGSITEQLLNARADVTLGGGAKTFAETATAGEWQGKTLREQAQTRGYQLVSDAASLNSVTEANQQKPLLGLFADGNMPVRWLGPKATYHGNIDKPAVTCTPNPQRNDSVPTLAQMTDKAIELLSKNEKGFFLQVEGASIDKQNHAANPCGQIGETVDLDEAVQRALEFAKKEGNTLVIVTADHAHASQIVAPDTKAPGLTQALNTKDGAVMVMSYGNSEEDSQEHTGSQLRIAAYGPHAANVVGLTDQTDLFYTMKAALGLKVPGNSHHHHHH

— US20110294748A1 (Janssen / Centocor, published 2011)
